{"source": "patent US20250249039A1", "about": "(published 2025)", "target": "T1, PRAME peptide on HLA-A*02:01 (human)", "T1 peptide": "SLLQHLIGL", "experiment": "multimer staining"}
{"binder": "PRAME-425-358 (TCR, V domains shown) Valpha: QQPVQSPQAVILREGEDAVINCSSSKALYSVHWYRQKHGEAPVFLMILLKGGEQKGHDKISASFNEKKQQSSLYLTASQLSYSGTYFCGTEGTGDYKLSFGAGTTVTVRA Vbeta: EAQVTQNPRYLITVTGKKLTVTCSQNMNHEYMSWYRQDPGLGLRQIYYSMNVEVTDKGDVPEGYKVSRKEKRNFPLILESPSPNQTSLYFCASSAGTGGHEQYFGPGTRLTVT", "values": [{"measurement": "binding result", "result": "recognises"}]}
